Source: patent publication US20250361296A1 (BIOCYTOGEN PHARMACEUTICALS BEIJING, published 2025)

Columns and labels:
Assay in all cases: flow cytometry, CHO-S cells expressing the target; for Percentage of Positive Cells: test concentration or dose not given here
[1] = target: human SIGLEC1 on CHO-S-hSIGLEC1 cells (human, UniProt Q9BZZ2 20-1641)
Procedure: (§1) CHO-S-hSIGLEC15 cells, CHO-S-mSIGLEC15 cells, CHO-S-fasSIGLEC15 cells or CHO-S-dSIGLEC15 cells were transferred to a 96-well plate at a density of 5×10⁴ cells/well respectively. Serially diluted sample anti-SIGLEC15 antibodies were added to the 96-well plate, and incubated at 4° C. for 30 min. Then, the cells were incubated with the secondary antibody anti-hIgG-Fc-Alex Flour 647 (RL1-H) (Jackson ImmunoResearch Laboratories, Inc., 109-606-170) at 4° C. in the dark for 15 minutes before flow cytometry analysis.
(§2) Another similar experiment was performed to determine whether the anti-SIGLEC15 antibodies can bind with other SIGLEC family proteins. CHO-S-hSIGLEC1 cells (expressing hSIGLEC1, SEQ ID NO: 49)), CHO-S-hSIGLEC2 cells (expressing hSIGLEC2, SEQ ID NO: 50), CHO-S-hSIGLEC4 cells (expressing hSIGLEC4, SEQ ID NO: 51), CHO-S-hSIGLEC5 cells (expressing hSIGLEC5, SEQ ID NO: 52), CHO-S-hSIGLEC6 cells (expressing hSIGLEC6, SEQ ID NO: 53), CHO-S-hSIGLEC7 cells (expressing hSIGLEC7, SEQ ID NO: 54), CHO-S-hSIGLEC8 cells (expressing hSIGLEC8, SEQ ID NO: 55), CHO-S-hSIGLEC9 cells (expressing hSIGLEC9, SEQ ID NO: 56), CHO-S-hSIGLEC10 cells (expressing hSIGLEC10, SEQ ID NO: 57), CHO-S-hSIGLEC11 cells (expressing hSIGLEC11, SEQ ID NO: 58), CHO-S-hSIGLEC12 cells (expressing hSIGLEC12, SEQ ID NO: 59), CHO-S-hSIGLEC14 cells (expressing hSIGLEC14, SEQ ID NO: 60) or CHO-S-hSIGLEC16 cells (expressing hSIGLEC16, SEQ ID NO: 61) were used.

[2] = target: T1, human SIGLEC14 on CHO-S-hSIGLEC14 cells (human, UniProt Q08ET2 17-358)
T1 sequence: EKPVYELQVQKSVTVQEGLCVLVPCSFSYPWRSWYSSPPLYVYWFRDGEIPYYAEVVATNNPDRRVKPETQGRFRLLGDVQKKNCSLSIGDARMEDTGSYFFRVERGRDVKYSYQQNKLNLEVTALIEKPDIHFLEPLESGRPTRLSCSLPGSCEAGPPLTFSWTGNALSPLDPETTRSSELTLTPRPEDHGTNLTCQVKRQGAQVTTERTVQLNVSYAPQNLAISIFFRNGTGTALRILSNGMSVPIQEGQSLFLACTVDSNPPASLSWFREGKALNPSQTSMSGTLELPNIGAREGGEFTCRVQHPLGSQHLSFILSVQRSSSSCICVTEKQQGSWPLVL
Procedure: as §1, §2

[3] = target: T2, human SIGLEC5 on CHO-S-hSIGLEC5 cells (human, UniProt O15389 17-441)
T2 sequence: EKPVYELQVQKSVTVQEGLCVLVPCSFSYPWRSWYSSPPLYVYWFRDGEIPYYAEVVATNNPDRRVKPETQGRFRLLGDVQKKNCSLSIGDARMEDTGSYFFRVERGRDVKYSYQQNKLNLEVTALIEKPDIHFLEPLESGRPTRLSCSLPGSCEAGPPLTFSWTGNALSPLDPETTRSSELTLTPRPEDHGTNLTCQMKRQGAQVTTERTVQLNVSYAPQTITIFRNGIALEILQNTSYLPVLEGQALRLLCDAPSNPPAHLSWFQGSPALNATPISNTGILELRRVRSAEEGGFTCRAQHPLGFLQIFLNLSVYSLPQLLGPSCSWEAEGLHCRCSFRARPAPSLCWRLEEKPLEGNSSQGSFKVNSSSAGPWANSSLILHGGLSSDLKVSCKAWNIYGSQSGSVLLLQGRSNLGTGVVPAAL
Procedure: as §1, §2

[4] = target: T3, human SIGLEC16 on CHO-S-hSIGLEC16 cells (human, UniProt A6NMB1 17-434)
T3 chain: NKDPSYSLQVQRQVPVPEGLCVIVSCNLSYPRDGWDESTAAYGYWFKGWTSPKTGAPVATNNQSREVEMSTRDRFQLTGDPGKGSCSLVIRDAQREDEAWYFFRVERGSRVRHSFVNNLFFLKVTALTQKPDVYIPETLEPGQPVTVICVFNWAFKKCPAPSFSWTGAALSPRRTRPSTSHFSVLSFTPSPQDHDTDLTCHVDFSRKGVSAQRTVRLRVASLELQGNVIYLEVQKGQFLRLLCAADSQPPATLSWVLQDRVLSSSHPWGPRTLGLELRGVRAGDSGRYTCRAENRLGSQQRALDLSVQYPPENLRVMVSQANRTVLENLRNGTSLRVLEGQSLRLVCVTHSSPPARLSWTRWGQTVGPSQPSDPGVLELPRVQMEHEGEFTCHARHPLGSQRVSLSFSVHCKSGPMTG
Procedure: as §1, §2

[5] = target: T4, human SIGLEC11 on CHO-S-hSIGLEC11 cells (human, UniProt Q96RL6 104-561)
T4 sequence: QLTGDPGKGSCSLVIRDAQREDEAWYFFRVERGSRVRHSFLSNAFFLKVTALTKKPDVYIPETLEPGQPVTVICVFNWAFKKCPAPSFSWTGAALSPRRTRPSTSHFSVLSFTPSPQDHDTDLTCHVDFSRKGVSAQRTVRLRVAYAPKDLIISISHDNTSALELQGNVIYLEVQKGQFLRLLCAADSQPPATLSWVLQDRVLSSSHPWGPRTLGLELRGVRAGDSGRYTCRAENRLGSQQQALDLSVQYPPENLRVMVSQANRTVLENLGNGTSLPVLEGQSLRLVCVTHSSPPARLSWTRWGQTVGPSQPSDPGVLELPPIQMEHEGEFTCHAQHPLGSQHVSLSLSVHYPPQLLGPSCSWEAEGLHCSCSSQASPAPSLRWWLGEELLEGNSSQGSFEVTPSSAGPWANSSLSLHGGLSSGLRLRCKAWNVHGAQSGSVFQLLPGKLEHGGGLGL
Procedure: as §1, §2

[6] = target: human SIGLEC7 on CHO-S-hSIGLEC7 cells (human, UniProt Q9Y286 19-353)
Sequence of human SIGLEC7 on CHO-S-hSIGLEC7 cells (Q9Y286 19-353): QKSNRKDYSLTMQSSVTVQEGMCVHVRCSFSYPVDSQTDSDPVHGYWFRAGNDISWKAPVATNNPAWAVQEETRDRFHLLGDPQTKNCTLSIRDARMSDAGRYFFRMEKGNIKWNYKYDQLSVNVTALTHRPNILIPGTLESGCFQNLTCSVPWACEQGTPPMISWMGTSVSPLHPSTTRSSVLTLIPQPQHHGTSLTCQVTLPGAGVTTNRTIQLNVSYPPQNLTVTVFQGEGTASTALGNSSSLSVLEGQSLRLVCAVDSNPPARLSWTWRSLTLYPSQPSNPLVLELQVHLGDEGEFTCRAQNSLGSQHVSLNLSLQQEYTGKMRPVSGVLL
Procedure: as §1, §2

Sequence of human SIGLEC1 on CHO-S-hSIGLEC1 cells (Q9BZZ2 20-1641): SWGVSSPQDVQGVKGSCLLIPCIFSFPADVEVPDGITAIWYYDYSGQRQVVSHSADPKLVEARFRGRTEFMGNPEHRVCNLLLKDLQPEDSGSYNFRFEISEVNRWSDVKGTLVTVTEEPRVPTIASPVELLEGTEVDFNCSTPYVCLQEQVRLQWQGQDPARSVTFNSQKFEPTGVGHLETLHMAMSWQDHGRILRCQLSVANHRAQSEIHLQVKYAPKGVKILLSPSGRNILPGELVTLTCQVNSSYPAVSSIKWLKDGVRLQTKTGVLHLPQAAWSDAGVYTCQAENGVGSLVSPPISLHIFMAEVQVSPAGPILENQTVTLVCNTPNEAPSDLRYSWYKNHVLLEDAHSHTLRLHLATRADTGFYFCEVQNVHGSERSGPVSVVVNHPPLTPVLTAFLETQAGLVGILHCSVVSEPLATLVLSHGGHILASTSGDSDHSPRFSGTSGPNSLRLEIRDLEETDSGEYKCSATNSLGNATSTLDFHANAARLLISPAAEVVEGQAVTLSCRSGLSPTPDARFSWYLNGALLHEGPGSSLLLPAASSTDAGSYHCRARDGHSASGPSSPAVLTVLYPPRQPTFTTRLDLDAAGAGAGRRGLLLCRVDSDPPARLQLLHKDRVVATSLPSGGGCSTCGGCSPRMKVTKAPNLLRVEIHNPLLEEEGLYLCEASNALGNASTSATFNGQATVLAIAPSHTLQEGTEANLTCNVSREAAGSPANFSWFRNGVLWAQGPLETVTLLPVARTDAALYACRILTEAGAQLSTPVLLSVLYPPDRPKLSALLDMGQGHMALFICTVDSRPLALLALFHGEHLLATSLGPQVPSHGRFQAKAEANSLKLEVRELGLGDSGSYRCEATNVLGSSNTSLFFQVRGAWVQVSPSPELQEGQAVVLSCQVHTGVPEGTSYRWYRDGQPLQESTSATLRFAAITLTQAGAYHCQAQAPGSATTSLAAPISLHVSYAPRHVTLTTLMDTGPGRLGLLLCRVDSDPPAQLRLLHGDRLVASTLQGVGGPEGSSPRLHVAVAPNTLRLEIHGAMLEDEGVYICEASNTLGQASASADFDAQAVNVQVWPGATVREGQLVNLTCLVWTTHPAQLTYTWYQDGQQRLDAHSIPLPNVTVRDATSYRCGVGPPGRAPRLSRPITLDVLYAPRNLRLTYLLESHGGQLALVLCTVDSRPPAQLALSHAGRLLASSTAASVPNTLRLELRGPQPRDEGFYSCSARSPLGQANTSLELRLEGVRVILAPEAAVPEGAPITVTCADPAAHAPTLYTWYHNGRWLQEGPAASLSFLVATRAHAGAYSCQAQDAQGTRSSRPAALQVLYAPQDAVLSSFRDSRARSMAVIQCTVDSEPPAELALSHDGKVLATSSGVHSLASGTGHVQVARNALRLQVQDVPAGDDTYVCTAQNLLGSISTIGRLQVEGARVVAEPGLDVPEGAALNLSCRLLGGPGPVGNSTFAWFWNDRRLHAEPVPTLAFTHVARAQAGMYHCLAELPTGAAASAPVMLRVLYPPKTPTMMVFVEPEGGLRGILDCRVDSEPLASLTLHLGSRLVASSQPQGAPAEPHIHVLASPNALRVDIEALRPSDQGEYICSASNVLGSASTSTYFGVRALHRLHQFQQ

B1: anti-SIGLEC15 antibody 10C9 (antibody, human IgG1, V domains shown)
VH: QVQLVQSGAEVKKPGATVKVSCKASGYTFTNYGFSWVRQAPGQGLEWMGWINTYNDNTNYAQKFQGRVTMTTDTSTSTAYMELRSLRSDDTAVYYCARDGLWFGELPHYFDYWGQGTLVTVSS
VL: DIQLTQSPLSSPVTLGQPASISCRSSQSLVNSDGETFLSWLQQRPGQPPRLLIYKISNRFSGVPDRFSGSGAGTDFTLKISRVEAEDVGVYYCMQATQFPHTFGQGTKLEIK
Percentage of Positive Cells [1]: 0.1%
binding result [1]: no binding
Percentage of Positive Cells [2]: 0.2%
binding result [2]: no binding
Percentage of Positive Cells [3]: 0.2%
binding result [3]: no binding
Percentage of Positive Cells [4]: 0.2%
binding result [4]: no binding
Percentage of Positive Cells [5]: 0.1%
binding result [5]: no binding
Percentage of Positive Cells [6]: 0.4%
binding result [6]: no binding

B2: anti-SIGLEC15 antibody 10A7 (antibody, human IgG1, V domains shown)
VH: EVQLVQSGGGLVQPGGSLRLSCAASGFTFSNYEMNWVRQAPGKGLEWISYISNSGSTIYYADSVKGRFTISRDDAKNSLYLQMNSLRAEDTAVYYCAREDYDSSGYYWFDPWGQGTPVTVSS
VL: DIQLTQSPSSVSASVGDRVTITCRASQGISSWLAWYQQKPGKAPKLLIYAASSLQSGVPSRFSGSGSGTDFTLTINSLQPEDFATYYCQQTNSFPLTFGGGTKVEIK
Percentage of Positive Cells [1]: 0%
binding result [1]: no binding
Percentage of Positive Cells [2]: 0.1%
binding result [2]: no binding
Percentage of Positive Cells [3]: 0.2%
binding result [3]: no binding
Percentage of Positive Cells [4]: 0.2%
binding result [4]: no binding
Percentage of Positive Cells [5]: 0.1%
binding result [5]: no binding
Percentage of Positive Cells [6]: 0.2%
binding result [6]: no binding

B3: anti-SIGLEC15 antibody 23F4 (antibody, human IgG1, V domains shown)
VH: QVQLQQWGAGLLKPSETLSLTCAVYGGSFSGYFWSWIRQPPGKGLEWIGEINHSGSTNYNPSLKSRVTLSVDTSKNQFSLKLSSVTAADTAVYYCAREGDSSSWGNWFDPWGQGTLVTVSS
VL: EIVLTQSPGTLSLSPGERATLSCRASQSVSSSYLAWYQQKPGQAPRFLIYGASSRATGIPDRFSGSGSGTDFTLTISRLEPEDFAVYYCQQFGNSPLTFGGGTKVEIK
Percentage of Positive Cells [1]: 1.1%
binding result [1]: no binding
Percentage of Positive Cells [2]: 1.3%
binding result [2]: no binding
Percentage of Positive Cells [3]: 7%
binding result [3]: no binding
Percentage of Positive Cells [4]: 1.3%
binding result [4]: no binding
Percentage of Positive Cells [5]: 0.2%
binding result [5]: no binding
Percentage of Positive Cells [6]: 1%
binding result [6]: no binding
